Data on three molecules can be found in patent US20250388672A1.

Assay [1] deals with human TCR/CD3 complex on purified primary human T cells (human). The assay can be described thus: flow cytometry on primary human T cells.
Assay [2] deals with human CD3 expressed on HEK293H cells (human) (UniProt P20963). The assay can be described thus: flow cytometry on HEK293H cells expressing human CD3. (In general: Flow cytometry measures light scatter and fluorescence of single cells or particles in a stream.)
Sequence of human CD3 expressed on HEK293H cells (human) (chain, as listed by the source limits assumed, chain 1 of 4): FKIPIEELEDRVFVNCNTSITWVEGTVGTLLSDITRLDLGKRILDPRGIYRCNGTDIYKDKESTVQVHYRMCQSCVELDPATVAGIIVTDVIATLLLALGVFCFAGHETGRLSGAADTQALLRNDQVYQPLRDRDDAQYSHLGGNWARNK
Sequence of human CD3 expressed on HEK293H cells (human) (chain, as listed by the source limits assumed, chain 2 of 4): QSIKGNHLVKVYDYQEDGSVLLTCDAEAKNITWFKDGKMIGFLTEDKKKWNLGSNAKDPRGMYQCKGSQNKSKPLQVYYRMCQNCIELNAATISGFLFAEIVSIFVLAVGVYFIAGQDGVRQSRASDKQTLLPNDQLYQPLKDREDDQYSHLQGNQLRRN
Sequence of human CD3 expressed on HEK293H cells (human) (chain, as listed by the source limits assumed, chain 3 of 4): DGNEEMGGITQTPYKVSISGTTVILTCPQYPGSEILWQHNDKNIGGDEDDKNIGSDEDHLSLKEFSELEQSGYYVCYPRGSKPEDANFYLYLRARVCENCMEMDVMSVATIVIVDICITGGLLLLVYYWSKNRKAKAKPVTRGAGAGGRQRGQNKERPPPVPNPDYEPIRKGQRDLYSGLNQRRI
Sequence of human CD3 expressed on HEK293H cells (human) (P20963 22-164 limits assumed, chain 4 of 4): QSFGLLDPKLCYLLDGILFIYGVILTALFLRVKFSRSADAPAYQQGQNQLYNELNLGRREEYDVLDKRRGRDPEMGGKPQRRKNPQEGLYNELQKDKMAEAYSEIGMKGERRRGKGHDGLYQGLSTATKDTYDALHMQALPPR
Assay [3] has as its target human TCR(2IAN)/CD3 expressed on HEK293H cells (human) (UniProt P04234). The assay can be described thus: flow cytometry on HEK293H cells expressing human TCR(2IAN)/CD3.

Sequence of human TCR/CD3 complex on purified primary human T cells (human) (delta, as listed by the source limits assumed, form in doubt, chain 1 of 4): as the sequence (chain, as listed by the source limits assumed, chain 1 of 4) above
Sequence of human TCR/CD3 complex on purified primary human T cells (human) (gamma, as listed by the source limits assumed, form in doubt, chain 2 of 4): as the sequence (chain, as listed by the source limits assumed, chain 2 of 4) above
Sequence of human TCR/CD3 complex on purified primary human T cells (human) (epsilon, as listed by the source limits assumed, form in doubt, chain 3 of 4): as the sequence (chain, as listed by the source limits assumed, chain 3 of 4) above
Sequence of human TCR/CD3 complex on purified primary human T cells (human) (zeta, as listed by the source limits assumed, form in doubt, chain 4 of 4): as the sequence (P20963 22-164 limits assumed, chain 4 of 4) above

B1: T017000016 (bispecific antibody)
chain: EVQLVESGGGLVQPGGSLRLSCTFSGGTFSSYTMGWFRQAPGKEREFVAEVRWGGVTTYSNSLKDRFSISEDSVKNAVYLQMNSLKPEDTAVYYCAAVRQMYMTVVPDYWGQGTLVTVSSGGGGSGGGGSGGGGSGGGGSGGGGSGGGGSGGGGSEVQLVESGGGSVQAGGSLRLSCAASGRTFSTNPMGWFRQVPGKERELIAAVRWADGNTFYADSVKGRFTISRDNAKKTVYLQMNSLKSEDTATYYCAAGRPWSAYHSPAEYVHWGQGTLVTVSSGAADYKDHDGDYKDHDIDYKDDDDKGAAHHHHHH
As for B1, the EC50 (in general, the concentration at which the effect is half-maximal) in assay [1] was above 100 nM.

B2: T0170052G04 (VHH, not shown: small tags and cut ends)
VHH: EVQLVESGGGAVQPGGSLRLSCAASGIRISRNMMGWFRQAPGKQRDLVARITPGGDTYYVDSVKGRFSISKDNAKNTVYLQMNSLKPEDTAVYYCNSYSTLGSWGQGTQVTVSS
In assay [2], B2 showed an EC50 above 100 nM and an MCF at 1 µM/top of 2850 MCF. Moreover, in assay [3], the EC50 was above 100 nM and the MCF at 1 µM/top came to 4950 MCF.

B3: T0170011A10 (VHH, not shown: small tags and cut ends)
VHH: EVQLVESGGGLVQGGGSLSLSCAASGRTFSSYAMAWFRQPPGKEREFVASISWSGENTNYRNSVKGRFTISRDNAKNTVYLQMNSLKPEDTAVYYCAAKIAKTYPDNWYWTKSNNYNYWGQGTQVTVSS
On to B3, for which, in assay [2], the EC50 was above 100 nM and the MCF at 1 µM/top was found to be 3300 MCF. In assay [3], this molecule displayed an EC50 above 100 nM and an MCF at 1 µM/top of 15900 MCF.
